For assay [1], the target named is T1, truncated OGT N567K (O-GlcNAc transferase, residues 323-1044, N567K variant) (human, UniProt O15294 323-1044, N567K).
T1 construct: O-GlcNAc transferase (OGT), human, residues 323-1044, with the patient missense mutation N567K in the catalytic domain; In the crystal it also holds the donor analog UDP-5S-GlcNAc; N567K is a de novo mutation found in patients; also called N567K OGT; O-linked β-N-acetyl-D-glucosamine (O-GlcNAc) transferase N567K; source: recombinant, from Escherichia coli (expression and purification in SI …)
T1 sequence (looked up): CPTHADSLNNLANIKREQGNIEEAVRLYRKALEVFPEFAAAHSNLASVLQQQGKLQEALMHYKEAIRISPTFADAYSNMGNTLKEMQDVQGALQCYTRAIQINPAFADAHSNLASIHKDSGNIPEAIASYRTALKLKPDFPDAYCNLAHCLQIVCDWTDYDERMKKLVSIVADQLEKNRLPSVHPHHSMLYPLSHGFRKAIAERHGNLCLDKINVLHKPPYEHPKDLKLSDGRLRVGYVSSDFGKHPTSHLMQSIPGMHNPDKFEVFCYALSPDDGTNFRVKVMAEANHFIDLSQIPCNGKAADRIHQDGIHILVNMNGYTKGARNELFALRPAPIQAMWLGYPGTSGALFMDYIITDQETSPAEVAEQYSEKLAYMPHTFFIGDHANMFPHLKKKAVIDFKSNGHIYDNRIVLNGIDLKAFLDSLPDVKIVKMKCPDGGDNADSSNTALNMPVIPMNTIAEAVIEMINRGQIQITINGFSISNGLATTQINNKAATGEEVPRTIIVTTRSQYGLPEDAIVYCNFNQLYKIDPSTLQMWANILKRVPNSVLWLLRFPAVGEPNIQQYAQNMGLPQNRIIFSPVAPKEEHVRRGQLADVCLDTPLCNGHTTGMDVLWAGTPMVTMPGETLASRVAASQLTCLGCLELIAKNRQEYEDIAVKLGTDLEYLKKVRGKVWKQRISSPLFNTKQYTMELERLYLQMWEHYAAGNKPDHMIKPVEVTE
Briefly: crystal structure; OGT N567K (323-1044) cocrystallized with the donor analog UDP-5S-GlcNAc and acceptor peptide P2; ternary complex; molecular replacement with PDB 5C1D. The conditions noted are these: both partners purified.

For assay [2], the target named is T2, truncated OGT N567K (O-GlcNAc transferase, residues 323-1044, N567K variant) (human) (UniProt O15294).
T2 sequence: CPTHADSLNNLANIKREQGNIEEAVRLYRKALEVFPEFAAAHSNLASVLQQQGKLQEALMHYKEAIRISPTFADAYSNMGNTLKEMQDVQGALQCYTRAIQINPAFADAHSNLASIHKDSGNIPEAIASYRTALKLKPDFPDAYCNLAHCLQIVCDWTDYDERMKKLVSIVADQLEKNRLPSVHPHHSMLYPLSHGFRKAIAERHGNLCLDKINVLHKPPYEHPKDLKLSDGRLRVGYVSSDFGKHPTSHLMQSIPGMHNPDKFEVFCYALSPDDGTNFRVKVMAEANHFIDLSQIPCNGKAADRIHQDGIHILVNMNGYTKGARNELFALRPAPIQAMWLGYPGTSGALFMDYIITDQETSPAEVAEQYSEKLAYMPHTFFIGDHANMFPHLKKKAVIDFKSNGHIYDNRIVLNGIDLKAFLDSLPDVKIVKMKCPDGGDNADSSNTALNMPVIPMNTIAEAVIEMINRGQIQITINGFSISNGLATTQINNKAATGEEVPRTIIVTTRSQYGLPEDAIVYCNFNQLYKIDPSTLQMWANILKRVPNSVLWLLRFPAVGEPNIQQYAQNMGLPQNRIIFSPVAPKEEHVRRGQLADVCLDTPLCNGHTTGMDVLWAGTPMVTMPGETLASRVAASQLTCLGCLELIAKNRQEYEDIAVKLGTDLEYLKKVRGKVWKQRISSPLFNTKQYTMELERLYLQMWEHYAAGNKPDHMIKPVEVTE

B1: P2 acceptor peptide (KKVAVSRA) (peptide)
peptide: KKVAVSRA
notes: OGT acceptor peptide substrate with alanine at the -2 subsite
On to B1, for which, in assay [1], the binding result is listed as “binds”.

B2: P1 acceptor peptide (KKVPVSRA) (peptide)
peptide: KKVPVSRA
B2: the OGT glycosyltransferase activity, steady-state (Michaelis-Menten) kinetics, fluorometric assay, OGT N567K against acceptor peptide P1, compared with OGT WT in assay [2] is 12 fold.

These data come from paper PMC6660750, “Catalytic deficiency of O-GlcNAc transferase leads to X-linked intellectual disability” (Proceedings of the National Academy of Sciences of the …, 2019).
